In this experiment the target is TMIEdel80–100-HA (UniProt Q8K467). Put plainly: co-IP.

B1: MYC-TMC1 (natural protein)
chain: MLQIQVEEKEEDTEESSSEEEEDKLPRRESLRPKRKRTRDVINEDDPEPEPEDEETRKAREKERRRRLRRGAEEEEEIDEEELERLKALLDENRQMIATVKCKPWKMEKKIEVLKEAKKFVSENEGALGKGKGKKWFAFKMMMAKKWAKFLRDFENFKAACVPWENKIKAIESQFGSSVASYFLFLRWMYGVNMVLFVLTFSLIMLPEYLWGLPYGSLPRKTVPRAEEASAANFGVLYDFNGLAQYSVLFYGYYDNKRTIGWLNFRLPLSYFLVGIMCIGYSFLVVLKAMTKNIGDDGGGDDNTFNFSWKVFCSWDYLIGNPETADNKFNSITMNFKEAIIEERAAQVEENIHLIRFLRFLANFFVFLTLGASGYLIFWAVKRSQEFAQQDPDTLGWWEKNEMNMVMSLLGMFCPTLFDLFAELEDYHPLIALKWLLGRIFALLLGNLYVFILALMDEINNKIEEEKLVKANITLWEANMIKAYNESLSGLSGNTTGAPFFVHPADVPRGPCWETMVGQEFVRLTVSDVLTTYVTILIGDFLRACFVRFCNYCWCWDLEYGYPSYTEFDISGNVLALIFNQGMIWMGSFFAPSLPGINILRLHTSMYFQCWAVMCCNVPEARVFKASRSNNFYLGMLLLILFLSTMPVLYMIVSLPPSFDCGPFSGKNRMFEVIGETLEHDFPSWMAKILRQLSNPGLVIAVILVMVLTIYYLNATAKGQKAANLDLKKKMKQQALENKMRNKKMAAARAAAAAGGQ
Turning to B1, the percent reduction of co-IP against TMIE-HA was found to be 80%.

These data come from paper PMC7351599.
